Laboratory results reported in patent US20100040541A1 (published 2010).
Where a chain is given by its changes, count along the chain named. Names may count otherwise. One block for each molecule: values may come before it.

What was measured:
[1] = biological target: T1, CD20 (human B lymphocyte-restricted differentiation antigen, Bp35) on human Burkitt lymphoma cells (Raji, Daudi, Ramos) (human) (UniProt P11836); assay: cell-based or functional assay
T1 sequence (looked up): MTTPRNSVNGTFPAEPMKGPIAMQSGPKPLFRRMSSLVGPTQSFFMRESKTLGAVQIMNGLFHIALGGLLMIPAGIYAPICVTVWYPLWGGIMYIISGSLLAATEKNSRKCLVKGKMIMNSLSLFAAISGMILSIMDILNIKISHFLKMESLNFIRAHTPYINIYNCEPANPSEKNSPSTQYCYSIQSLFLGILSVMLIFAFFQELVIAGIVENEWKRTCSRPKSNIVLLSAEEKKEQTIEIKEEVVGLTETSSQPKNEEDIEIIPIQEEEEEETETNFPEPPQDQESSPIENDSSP

anti-idiotype antibodies = assay: binding of radioiodinated MAb to anti-idiotype antibodies
[2] = biological target: T2, CD20 (human B lymphocyte-restricted differentiation antigen, Bp35) on human Burkitt lymphoma cells (Raji, … (human, UniProt P11836 1-297)); assay: flow cytometry dissociation from lymphoma cells, with or without a competitive binder
T2 construct: whole, on cells; also called cell-surface CD20
T2 sequence (looked up): T1 sequence (looked up)
Experimental: (§1) Cells (Daudi, Raji, or Ramos) in 0.5 mL of CM (phenol red-free RPMI 1640 media supplemented with 10% FBS) at 1×10⁶ cells/mL were incubated with 5 μg of each PE-labeled MAb at room temperature for 30 min, pelleted at 400×g, washed twice with CM, resuspended in 1.5 mL of CM, and split into two 0.75-mL aliquots. […] Subsequent measurements were taken at 30-min intervals. The percent maximal binding, which is the quotient of the MFI at T=X divided by that at T=0, was plotted against time, and the results analyzed by Prism software (GraphPad Software Inc., San Diego, Calif.) to yield the half-life or off-rates.

[3] = biological target: T2, CD20 (human B lymphocyte-restricted …); assay: saturation binding of 125I-labeled MAb to Raji cells, nonlinear regression / Scatchard, replicate assays
Experimental: Raji cells (5×10⁵) were incubated with radioiodinated MAbs in an assay volume of 225 μl, using tissue culture media as diluent, for 1 h at 37° C. or room temperature. Cells then were washed twice with PBS containing 1% horse serum, and cell pellets were counted in a gamma counter. The MAbs were titrated at a 2:3 serial dilution starting with approximately 2×10⁶ cpm/2 μg MAb/tube, run in triplicate. Non-specific binding was measured by including replicate unlabeled MAb.

[4] = biological target: T2, CD20 (human B lymphocyte-restricted …); assay: flow cytometry dissociation of PE-labeled MAb from Raji cells at 37 C without competing veltuzumab-Fab'-NEM
Experimental: The off-rate was determined by non-linear regression (one phase exponential decay) and P-values were generated by F-test using GraphPad Prism software.
as §1

[5] = biological target: T2, CD20 (human B lymphocyte-restricted …); assay: flow cytometry dissociation of PE-labeled MAb from Daudi, Ramos and Raji cells at 37 C with excess veltuzumab-Fab'-NEM
Experimental: as §1

[6] = biological target: T2, CD20 (human B lymphocyte-restricted …); assay: flow cytometry dissociation of PE-labeled MAb from Raji cells at 37 C with excess veltuzumab-Fab'-NEM
Experimental: as §1

[7] = biological target: T1, CD20 (human B lymphocyte-restricted differentiation antigen, Bp35) on human Burkitt lymphoma cells (Raji, Daudi, Ramos) (human); assay: flow cytometry dissociation of PE-labeled MAb from Raji cells at 37 C without competing veltuzumab-Fab'-NEM

Molecule: hMN-14 IgG (labetuzumab), humanized anti-CEACAM5 monoclonal antibody, negative control
ADCC (% lysis) of Daudi cells with PBMCs, negative control MAb [1]: 9.9 % lysis

B1: veltuzumab (hA20), humanized anti-CD20 IgG-kappa monoclonal antibody (antibody, V domains shown)
VH: QVQLQQSGAEVKKPGSSVKVSCKASGYTFTSYNMHWVKQAPGQGLEWIGAIYPGNGDTSYNQKFKGKATLTADESTNTAYMELSSLRSEDTAFYYCARSTYYGGDWYFDVWGQGTTVTVSS
VL: DIQLTQSPSSLSASVGDRVTMTCRASSSVSYIHWFQQKPGKAPKPWIYATSNLASGVPVRFSGSGSGTDYTFTISSLQPEDIATYYCQQWTSNPPTFGGGTKLEIK
notes: also called v-mab; Vmab
immunoreactivity (anti-idiotype antibodies): > 90% | fold slower off-rate than rituximab or D101N [2]: ~2.5 fold | Kd [3]: 6.23 to 12 nM | half-life (dissociation) [4]: 4.68 h | fold longer dissociation half-life than rituximab [5]: 2.7 fold

B4: rituximab, chimeric anti-CD20 monoclonal antibody (IDEC-c2B8) (antibody, V domains shown)
VH: QVQLQQPGAELVKPGASVKMSCKASGYTFTSYNMHWVKQTPGRGLEWIGAIYPGNGDTSYNQKFKGKATLTADKSSSTAYMQLSSLTSEDSAVYYCARSTYYGGDWYFNVWGQGTTVTVSS
VL: QIVLSQSPAILSASPGEKVTMTCRASSSVSYIHWFQQKPGSSPKPWIYATSNLASGVPVRFSGSGSGTSYSLTISRVEAEDAATYYCQQWTSNPPTFGGGTK
notes: Commercial chimeric antibody with human constant regions; also called Rmab; Rituxan
Kd [3]: 6.7 to 8.63 nM | half-life (dissociation) [4]: 1.57 h

Results, then the molecule that gave them:

fold faster off-rate than rituximab [6]: 2 fold | fold faster off-rate than veltuzumab [6]: 6 fold | half-life (dissociation) [4]: 0.7 h
B2: D101N, mutant of veltuzumab with aspartic acid changed to asparagine at Kabat position 101 in CDRH3 (antibody, name in Kabat numbering, V domains shown)
VH: B1 VH with D109N
VL: B1 VL
notes: It has the same CDRs as rituximab and FRs identical to veltuzumab, with the same constant regions as veltuzumab (hA20-pdHL2 vector); also called D101N-hA20

half-life (dissociation) [7]: 3.25 h
B3: 1F5, murine anti-CD20 monoclonal antibody (antibody, from another filing, V domains shown)
VH: QVQLRQPGAELVKPGASVKMSCKASGYTFTSYNMHWVKQTPGQGLEWIGAIYPGNGDTSYNQKFKGKATLTADKSSSTAYMQLSSLTSEDSAVYYCARSHYGSNYVDYFDYWGQGTTLTVSS
VL: QIVLSQSPAILSASPGEKVTMTCRASSSLSFMHWYQQKPGSSPKPWIYATSNLASGVPARFSGSGSGTSYSLTISRVEAEDAATYFCHQWSSNPLTFGAGTKLELKR

fold slower off-rate than rituximab or D101N [2]: ~2.5 fold
B5: cA20, chimeric anti-CD20 antibody (antibody, V domains shown)
VH: B4 VH with N109D
VL: DIQLTQSPAILSASPGEKVTMTCRASSSVSYIHWFQQKPGSSPKPWIYATSNLASGVPVRFSGSGSGTSYSLTISRVEAEDAATYYCQQWTSNPPTFGGGTKLEIK
notes: Chimeric antibody: murine variable regions on human constant regions
